Reference: patent US20050112108, “Transcriptional regulator of genes involved in the control of cell growth or cell proliferation. Use of said regulator as a therapeutic or diagnostic agent” (published 2005)

T1: GAAP-1 (IPCS-BF1, 2.5 kb PRDII-BF1 splice product) (Homo sapiens, UniProt P15822 SEQ:1-693)
T1 chain: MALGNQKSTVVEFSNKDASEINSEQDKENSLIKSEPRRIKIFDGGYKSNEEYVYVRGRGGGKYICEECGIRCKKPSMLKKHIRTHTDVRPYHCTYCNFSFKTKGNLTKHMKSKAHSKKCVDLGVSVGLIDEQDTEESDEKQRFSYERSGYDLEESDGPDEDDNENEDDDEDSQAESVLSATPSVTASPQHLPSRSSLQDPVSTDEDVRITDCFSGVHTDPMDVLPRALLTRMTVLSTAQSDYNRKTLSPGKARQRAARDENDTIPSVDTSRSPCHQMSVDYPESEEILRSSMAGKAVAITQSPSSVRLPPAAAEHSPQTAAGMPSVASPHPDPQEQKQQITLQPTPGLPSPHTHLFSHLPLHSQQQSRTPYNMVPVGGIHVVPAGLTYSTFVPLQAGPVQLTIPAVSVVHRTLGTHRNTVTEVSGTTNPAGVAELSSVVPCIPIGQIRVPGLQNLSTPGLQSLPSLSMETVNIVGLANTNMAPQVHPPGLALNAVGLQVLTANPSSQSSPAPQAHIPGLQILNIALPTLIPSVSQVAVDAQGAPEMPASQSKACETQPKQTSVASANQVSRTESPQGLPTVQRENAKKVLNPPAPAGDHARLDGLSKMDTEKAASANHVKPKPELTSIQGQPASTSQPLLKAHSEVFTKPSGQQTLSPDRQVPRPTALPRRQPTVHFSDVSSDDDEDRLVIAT


Tests used:
[1] = target: T1, GAAP-1 (IPCS-BF1, 2.5 kb PRDII-BF1 …); experiment: EMSA; one complex; competed by 50-fold excess; weaker than NF-kB probe in vitro; settings: tags: none (TNT reticulocyte lysate, pcDNA3.1); label: 32P
Description: FIG. 5a)—EMSA using the IPCS-p53 probe and in vitro translated GAAP-1 (lane1), GAAP-1 mtZ1 (lane 3), GAAP-1 mt Z2 (lane 5), or reticulocyte lysat with the empty expression vector (lane 7). Even lanes: 50 fold molar excess of IPCS-p53 oligonucleotide was added to the reaction of the previous lane. The arrow indicates the specific complex.
Synthetic double stranded oligonucleotide probes were labelled with α-³²P dCTP (Amersham Corp.) by “filling-in” with Sequenase, and then purified on Sephadex G-50. The protein-DNA binding reactions were carried out using 5 μg of nuclear extract and 0.1 fmol of probe in 20 μl of binding buffer (20 mM Tris-HCl, 25 mM KCl, 1 mM DTT, 1 mM EDTA, 0.1% Nonidet P40, 4% glycerol, 1 mg/ml bovine serum alcbumin, μg/ml poly(dI-dC)) for 20 min at 4° C. In vitro translation products were generated by 50 μl of TNT coupled reticulocyte Lysate System (Promega) and 1 μg of the appropriate plasmid. […]
PRDII-BF1 was previously described as a protein binding to an NF-κB site whose ability to recognise the DNA is determined by two pairs of zinc fingers, one of them present in GAAP-1 (Fan 90, Gaynor, Baldwin). […] To confirm the binding specificity of the cloned GAAP-1 for the IPCS target sequence, in vitro translated GAAP-1 was incubated with labelled IPCS or NF-κB oligonucleotide and analysed by Electro Mobility Shift Assay (EMSA). […]

[2] = target: T1, GAAP-1 (IPCS-BF1, 2.5 kb PRDII-BF1 …); experiment: EMSA; two complexes (possible homodimer); considerably stronger than IPCS-p53; settings: tags: none (TNT reticulocyte lysate, pcDNA3.1); label: 32P
Description: The protein-DNA binding reactions were carried out using 5 μg of nuclear extract and 0.1 fmol of probe in 20 μl of binding buffer (20 mM Tris-HCl, 25 mM KCl, 1 mM DTT, 1 mM EDTA, 0.1% Nonidet P40, 4% glycerol, 1 mg/ml bovine serum alcbumin, μg/ml poly(dI-dC)) for 20 min at 4° C. In vitro translation products were generated by 50 μl of TNT coupled reticulocyte Lysate System (Promega) and 1 μg of the appropriate plasmid. 5 μl of the in vitro product was used instead of the nuclear extract when required. The reaction mixture was then electrophoresed on a 6% non denaturing acrylamide gel. Competition experiments were carried out using a 50-fold molar excess of the unlabelled probe. The following oligonucleotides (and their complementary strands) were used in these studies:
PRDII-BF1 was previously described as a protein binding to an NF-κB site whose ability to recognise the DNA is determined by two pairs of zinc fingers, one of them present in GAAP-1 (Fan 90, Gaynor, Baldwin). […] To confirm the binding specificity of the cloned GAAP-1 for the IPCS target sequence, in vitro translated GAAP-1 was incubated with labelled IPCS or NF-κB oligonucleotide and analysed by Electro Mobility Shift Assay (EMSA). […] Furthermore, the affinity of in vitro translated GAAP-1 was considerably stronger for the NF-κB probe than for the IPCS-P53 probe. […]

Row | Binder | binding result [1] | binding result [2]
1 | IPCS-p53 EMSA probe (dsDNA) DNA 1: AATGCAGGATTCCTCCAAAATGATTTCCAC DNA 2: GTGGAAATCATTTTGGAGGAATCCTGCATT | binds | 
2 | NF-kB-MHC (dsDNA) DNA 1: GATCCTCTGGGGATTCCCCATGGA DNA 2: TCCATGGGGAATCCCCAGAGGATC |  | binds
